*1 amine or outer side, *2 acyl side, *3 side chain or, on linkers, in order; H or OH if unused. Bridges are numbered along the chain shown (N, C = ends). Primed or numbered codes have the meaning given here. Where no end group is shown, it is not given here. [ ]: non-standard residue; d: D form. The star is where a group is joined. 4AcDPhe = D-(4-acyl)phenylalanine, CC(=O)c1ccc(C[C@@H](N[*:1])C(=O)[*:2])cc1; Phe(4-OMe)″ = 4-methoxyphenylalanine, COc1ccc(C[C@H](N[*:1])C(=O)[*:2])cc1; Trp(7-Ph) = N[C@@H](Cc1c[nH]c2c(-c3ccccc3)cccc12)C(=O)O; Phe(4-CONH2) = NC(=O)c1ccc(C[C@H](N)C(=O)O)cc1; Trp(7-Me) = Cc1cccc2c(C[C@H](N)C(=O)O)c[nH]c12; Phe(3R-Me) = C[C@H](c1ccccc1)[C@H](N)C(=O)O; dPhe(4-NH2) = Nc1ccc(C[C@@H](N)C(=O)O)cc1; αMeW = C[C@](N)(Cc1c[nH]c2ccccc12)C(=O)O; FPrpTriazoleMe_Acid = not defined here; 2Nal = N[C@@H](Cc1ccc2ccccc2c1)C(=O)O; AEF = NCCOc1ccc(C[C@H](N)C(=O)O)cc1; αMeF = C[C@](N)(Cc1ccccc1)C(=O)O; αMeE = C[C@](N)(CCC(=O)O)C(=O)O; Pen = CC(C)(S)[C@H](N)C(=O)O; αMeK = C[C@](N)(CCCCN)C(=O)O; Ac6c = NC1(C(=O)O)CCCCC1; Thp = NC1(C(=O)O)CCOCC1; Abu = CC[C@H](N)C(=O)O; Ac3c = NC1(C(=O)O)CC1; BH = not defined here; pr = not defined here; Aib = CC(C)(N)C(=O)O; Piv = CC(C)(C)C(=O)*; Alloc = C=CCOC(=O)*; Propyl = CCC*
B1: Compound No. 33 (peptide)
peptide: Propyl-[dR][Pen]QTWQ[Pen][AEF][2Nal][Thp]K(Alloc)NF-NH2
modifications: disulfide 2-7
SMILES: C=CCOC(=O)NCCCC[C@H](NC(=O)C1(NC(=O)[C@H](Cc2ccc3ccccc3c2)NC(=O)[C@H](Cc2ccc(OCCN)cc2)NC(=O)[C@H]2NC(=O)[C@H](CCC(N)=O)NC(=O)[C@H](Cc3c[nH]c4ccccc34)NC(=O)[C@H]([C@@H](C)O)NC(=O)[C@H](CCC(N)=O)NC(=O)[C@@H](NC(=O)[C@@H](CCCNC(=N)N)NCCC)C(C)(C)SSC2(C)C)CCOCC1)C(=O)N[C@@H](CC(N)=O)C(=O)N[C@@H](Cc1ccccc1)C(N)=O
B2: Compound No. 36 (peptide)
peptide: Ac-[dR][Abu]QTWQC[AEF][2Nal][Thp][αMeE]N[αMePhe(4-F)]-NH2
modifications: thioether 2-7
B3: Compound No. 317 (peptide)
peptide: XNTXKXXXXENX
modifications: MeCO-Pen-N-T-7MeW-K(Ac)-Pen-AEF-2Nal-Acpx-E-N-THP---CONH2; cyclized: Pen-Pen disulfide bond
B4: Compound No. 30 (peptide)
peptide: Ac-[dR][Abu]QTWQC[AEF][2Nal][Thp]QN[αMeF]-NH2
modifications: thioether 2-7
B5: Compound No. 26 (peptide)
peptide: pr-[dR][Pen]QTWQ[Pen][AEF][2Nal][Thp]K(Piv)NF-NH2
modifications: disulfide 2-7; reading uncertain
B6: Compound No. 314 (peptide)
peptide: Ac-[dR][Pen]NT[Trp(7-Me)]K(Ac)[Pen][AEF](BH)[2Nal][Thp]EN[αMeF]-NH2
modifications: disulfide 2-7; reading uncertain
B7: Compound No. 41 (peptide)
peptide: Ac-[dR][Abu]QTWQC[Phe(3,4-diOMe)][2Nal][Thp][αMeE]N[αMeF]-NH2
modifications: thioether 2-7
B8: Compound No. 23 (peptide)
peptide: [dR]CQTWQ[Pen][AEF][2Nal][Thp]EN[αMeF]-NH2
modifications: disulfide 2-7; not fully specified (N-terminus)
B9: Compound No. 12 (peptide)
peptide: RXQTWQCFXXENN
modifications: not fully specified; Ac-[(D)Arg]-[Abu]-Q-T-W-Q-[Cys]-Phe[4-(2-aminoethoxy)]-[2-Nal]-[THP]-E-N-N-ac; cyclized: Abu-Cys thioether bond
B10: Compound No. 39 (peptide)
peptide: Ac-[dR][Abu]QTWQ[Pen][AEF][2Nal][Ac6c][αMeE]N[Thp]-NH2
modifications: thioether 2-7
B11: Compound No. 42 (peptide)
peptide: Ac-[dR][Abu]QTWQC[AEF][2Nal][Ac6c]EN[Thp]-NH2
modifications: thioether 2-7
B12: Compound No. 20 (peptide)
peptide: [dR]CQTWQ[Pen][AEF][2Nal][Thp]EN[Thp]-NH2
modifications: disulfide 2-7; not fully specified (N-terminus)
B13: Compound No. 35 (peptide)
peptide: Ac-[dR][Abu]QTWQC[AEF][2Nal][Thp][αMeE]N[2Nal]-NH2
modifications: thioether 2-7
B14: Compound No. 31 (peptide)
peptide: Ac-[dR][Abu]QTWQC[AEF][2Nal][Thp][αMeE]N[αMeW]-NH2
modifications: thioether 2-7
B15: Compound No. 313 (peptide)
peptide: Ac-[dR][Pen]NT[Trp(7-Me)]K(Ac)[Pen][AEF][2Nal][Thp]EN[Phe(3R-Me)]-NH2
modifications: disulfide 2-7
SMILES: CC(=O)NCCCC[C@@H]1NC(=O)[C@H](Cc2c[nH]c3c(C)cccc23)NC(=O)[C@H]([C@@H](C)O)NC(=O)[C@H](CC(N)=O)NC(=O)[C@@H](NC(=O)[C@@H](CCCNC(=N)N)NC(C)=O)C(C)(C)SSC(C)(C)[C@@H](C(=O)N[C@@H](Cc2ccc(OCCN)cc2)C(=O)N[C@@H](Cc2ccc3ccccc3c2)C(=O)NC2(C(=O)N[C@@H](CCC(=O)O)C(=O)N[C@@H](CC(N)=O)C(=O)N[C@H](C(N)=O)[C@H](C)c3ccccc3)CCOCC2)NC1=O
B16: Compound No. 17 (peptide)
peptide: Ac-[dR][Abu]QTWQC[AEF][2Nal][Thp]ENF-NH2
modifications: thioether 2-7
B17: Compound No. 316 (peptide)
peptide: Ac-[dR][Pen]NT[Trp(7-Me)]K(Ac)[Pen][AEF][2Nal][Ac3c]ENH[4AcDPhe]-NH2
modifications: disulfide 2-7
SMILES: CC(=O)NCCCC[C@@H]1NC(=O)[C@H](Cc2c[nH]c3c(C)cccc23)NC(=O)[C@H]([C@@H](C)O)NC(=O)[C@H](CC(N)=O)NC(=O)[C@@H](NC(=O)[C@@H](CCCNC(=N)N)NC(C)=O)C(C)(C)SSC(C)(C)[C@@H](C(=O)N[C@@H](Cc2ccc(OCCN)cc2)C(=O)N[C@@H](Cc2ccc3ccccc3c2)C(=O)NC2(C(=O)N[C@@H](CCC(=O)O)C(=O)N[C@@H](CC(N)=O)C(=O)N[C@@H](Cc3c[nH]cn3)C(=O)N[C@H](Cc3ccc(C(C)=O)cc3)C(N)=O)CC2)NC1=O
B18: Compound No. 25 (peptide)
peptide: FPrpTriazoleMe_Acid-[dR][Abu]QTWQC[Phe(4-OMe)″][2Nal][Thp]EN[Thp]-NH2
modifications: thioether 2-7; reading uncertain
B19: Compound No. 40 (peptide)
peptide: Ac-[dR]CQTWQ[Pen][AEF][2Nal][Ac6c][αMeE]N[αMeF]-NH2
modifications: disulfide 2-7
SMILES: CC(=O)N[C@H](CCCNC(=N)N)C(=O)N[C@H]1CSSC(C)(C)[C@@H](C(=O)N[C@@H](Cc2ccc(OCCN)cc2)C(=O)N[C@@H](Cc2ccc3ccccc3c2)C(=O)NC2(C(=O)N[C@@](C)(CCC(=O)O)C(=O)N[C@@H](CC(N)=O)C(=O)N[C@@](C)(Cc3ccccc3)C(N)=O)CCCCC2)NC(=O)[C@H](CCC(N)=O)NC(=O)[C@H](Cc2c[nH]c3ccccc23)NC(=O)[C@H]([C@@H](C)O)NC(=O)[C@H](CCC(N)=O)NC1=O
B20: Compound No. 34 (peptide)
peptide: Ac-[dR][Abu]QTWQC[AEF][2Nal][Thp][αMeE]N[Phe(4-CONH2)]-NH2
modifications: thioether 2-7
B21: Compound No. 11 (peptide)
peptide: Ac-[dR][Abu]QT[Trp(7-Ph)]K(Ac)C[AEF][2Nal][αMeK]K(Ac)N[αMeF]-NH2
modifications: thioether 2-7
B22: Compound No. 315 (peptide)
peptide: Ac-[dR][Pen]NT[Trp(7-Me)]K(Ac)[Pen][AEF][2Nal][Ac3c]ENH[dPhe(4-NH2)]-NH2
modifications: disulfide 2-7
SMILES: CC(=O)NCCCC[C@@H]1NC(=O)[C@H](Cc2c[nH]c3c(C)cccc23)NC(=O)[C@H]([C@@H](C)O)NC(=O)[C@H](CC(N)=O)NC(=O)[C@@H](NC(=O)[C@@H](CCCNC(=N)N)NC(C)=O)C(C)(C)SSC(C)(C)[C@@H](C(=O)N[C@@H](Cc2ccc(OCCN)cc2)C(=O)N[C@@H](Cc2ccc3ccccc3c2)C(=O)NC2(C(=O)N[C@@H](CCC(=O)O)C(=O)N[C@@H](CC(N)=O)C(=O)N[C@@H](Cc3c[nH]cn3)C(=O)N[C@H](Cc3ccc(N)cc3)C(N)=O)CC2)NC1=O
B23: Compound No. 29 (peptide)
peptide: Ac-[dR][Abu]QTWQC[AEF][2Nal][Ac6c][αMeE]N[αMeF]-NH2
modifications: thioether 2-7
B24: Compound No. 21 (peptide)
peptide: [dR][Abu]QTWQC[Phe(4-OMe)″][2Nal][Thp]EN[Thp]-NH2
modifications: thioether 2-7; not fully specified (N-terminus)
B25: Compound No. 32 (peptide)
peptide: Ac-[dR][Abu]QTWQC[AEF][2Nal][Thp][αMeE]N[1(2Nal)]-NH2
modifications: thioether 2-7
B26: Compound No. 27 (peptide)
peptide: Ac-[dR][Abu]QTWQC[AEF][2Nal][Ac6c][αMeE]NF-NH2
modifications: thioether 2-7
B27: Compound No. 38 (peptide)
peptide: Ac-[dR][Abu]QTWQC[AEF][2Nal][Ac6c][αMeE]N[Thp]-NH2
modifications: thioether 2-7
B28: Compound No. 28 (peptide)
peptide: Ac-[dR][Abu]QTWQC[AEF][2Nal][Ac6c][αMeE]NF[Aib]-NH2
modifications: thioether 2-7
B29: Compound No. 37 (peptide)
peptide: Ac-[dR][Abu]QTWQC[AEF][2Nal][Thp][αMeE]N[Thp]-NH2
modifications: thioether 2-7
B30: Compound No. 22 (peptide)
peptide: [dR][Abu]QTWQC[Phe(4-OMe)″][2Nal][Thp]EN[Thp]-NH2
modifications: thioether 2-7

What follows are binders tested against T1, human IL-23R (interleukin-23 receptor) (human, UniProt Q5VWK5 24-629) (assay: cell-based or functional assay).
T1 sequence (looked up): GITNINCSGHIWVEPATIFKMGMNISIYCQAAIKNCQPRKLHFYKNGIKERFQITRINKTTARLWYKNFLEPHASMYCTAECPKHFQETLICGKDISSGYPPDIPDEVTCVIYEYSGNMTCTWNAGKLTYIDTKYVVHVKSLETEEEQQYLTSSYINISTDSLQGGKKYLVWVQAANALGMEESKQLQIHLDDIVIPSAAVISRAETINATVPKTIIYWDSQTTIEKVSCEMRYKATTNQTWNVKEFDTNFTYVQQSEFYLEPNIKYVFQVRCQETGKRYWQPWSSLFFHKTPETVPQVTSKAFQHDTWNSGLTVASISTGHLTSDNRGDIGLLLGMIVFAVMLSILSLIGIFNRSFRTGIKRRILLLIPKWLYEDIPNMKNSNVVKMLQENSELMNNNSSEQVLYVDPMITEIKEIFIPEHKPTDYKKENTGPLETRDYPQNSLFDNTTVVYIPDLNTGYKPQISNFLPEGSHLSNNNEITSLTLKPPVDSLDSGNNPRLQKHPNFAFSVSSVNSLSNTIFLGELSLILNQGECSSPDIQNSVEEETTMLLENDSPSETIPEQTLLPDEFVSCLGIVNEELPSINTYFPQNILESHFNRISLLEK

Point of comparison: B13, “PBMC pSTAT3 IC50 (nM)” value 25 nM. Against it:
- B1 — lower, 11 nM
- B2 — lower, 14 nM
- B3 — lower, 13 nM
- B4 — the same, 25 nM
- B5 — lower, 8.2 nM
- B6 — higher, 75 nM
- B7 — higher, 2500 nM
- B8 — lower, 17 nM
- B9 — lower, 20 nM
- B10 — higher, 92 nM
- B11 — lower, 6.7 nM
- B12 — lower, 3.1 nM
- B14 — lower, 16 nM
- B15 — lower, 21 nM
- B16 — lower, 3.4 nM
- B17 — lower, 2.1 nM
- B18 — lower, 21 nM
- B19 — higher, 220 nM
- B20 — lower, 5.8 nM
- B22 — lower, 2 nM
- B23 — higher, 30 nM
- B24 — lower, 21 nM
- B25 — lower, 19 nM
- B26 — lower, 11 nM
- B27 — lower, 4.3 nM
- B28 — lower, 23 nM
- B29 — lower, 11 nM
- B30 — lower, 22 nM

B21 was tested, and the “pStat3 HTRF (nM), IC50, DB cells IL23R pSTAT3 cell assay” value was 13.9 nM.
